# Test results: patent publication US20110266675A1
# Target: microtubules assembled from fluorescein-modified bovine brain tubulin (α/β-tubulin) (bovine)
# Assay: cell-based or functional assay
substance,measurement,value
Glutathione S-Transferase (GST)-tagged γ-Tubulin fusion protein (from UniProt P23258 1-451),"average length of MTs after 5 min of polymerization, on γ-tubulin-functionalized gold pads against solution without functionalized microchips",1.68 micron
same,"average length of MTs after 10 min of polymerization, on γ-tubulin-functionalized gold pads against solution without functionalized microchips",3.47 micron
